Earlier results, collected in publication PMC7168109.

Target: T1, PTK7 (tyrosine protein kinase 7, CCK4) on CCRF-CEM or Jurkat cells (UniProt Q13308)
T1 sequence: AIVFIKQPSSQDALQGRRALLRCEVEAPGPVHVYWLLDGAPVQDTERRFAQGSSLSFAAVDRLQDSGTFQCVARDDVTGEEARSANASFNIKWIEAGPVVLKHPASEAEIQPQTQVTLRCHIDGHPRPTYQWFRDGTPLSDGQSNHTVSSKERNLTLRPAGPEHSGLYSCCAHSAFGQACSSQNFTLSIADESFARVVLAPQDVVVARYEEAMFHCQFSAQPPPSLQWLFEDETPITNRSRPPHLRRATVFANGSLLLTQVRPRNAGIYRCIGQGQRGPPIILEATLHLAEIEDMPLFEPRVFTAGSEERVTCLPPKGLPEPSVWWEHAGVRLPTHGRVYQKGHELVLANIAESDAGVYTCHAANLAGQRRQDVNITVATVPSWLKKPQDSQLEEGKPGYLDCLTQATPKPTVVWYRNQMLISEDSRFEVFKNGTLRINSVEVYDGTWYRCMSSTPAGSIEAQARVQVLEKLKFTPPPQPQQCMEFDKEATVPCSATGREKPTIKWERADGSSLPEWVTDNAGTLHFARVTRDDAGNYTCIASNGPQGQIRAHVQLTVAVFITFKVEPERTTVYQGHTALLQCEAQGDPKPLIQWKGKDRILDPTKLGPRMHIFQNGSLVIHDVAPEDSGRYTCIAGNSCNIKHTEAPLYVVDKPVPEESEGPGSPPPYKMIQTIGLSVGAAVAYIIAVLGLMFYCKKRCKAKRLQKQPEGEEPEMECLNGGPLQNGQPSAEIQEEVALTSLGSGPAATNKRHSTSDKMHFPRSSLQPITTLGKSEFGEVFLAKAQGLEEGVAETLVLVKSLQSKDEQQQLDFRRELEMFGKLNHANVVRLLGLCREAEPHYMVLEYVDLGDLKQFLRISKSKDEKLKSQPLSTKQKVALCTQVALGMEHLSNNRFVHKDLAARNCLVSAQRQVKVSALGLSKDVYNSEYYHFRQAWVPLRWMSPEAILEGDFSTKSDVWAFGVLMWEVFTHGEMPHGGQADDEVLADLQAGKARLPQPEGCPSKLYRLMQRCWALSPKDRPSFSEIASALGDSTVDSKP
Assay: cited, method not stated
Settings: Flow cytometry on whole cells: 200 nM aptamer, 4 °C, 30 min in the dark, cells washed with PBS before incubation, three washes after; binding buffer and pH not …

For Sgc8 (as cited), the Kd is listed as 0.8 nM.
